Numbered stars: 1 amine (or outer) side, 2 acyl side, 3 side chain; on linkers, the order of the positions; unused ones are H or OH. Square brackets hold non-standard residues; d marks the D form. Side chains are listed from the residue outwards. Ends that are not written are not given here. * marks the point of attachment. C18 diacid = O=C(O)CCCCCCCCCCCCCCCCC(=O)*; γGlu = O=C(O)[C@H](CCC(=O)[*:2])N[*:1]; AEEA = NCCOCCOCC(=O)O; Aib = CC(C)(N)C(=O)O
T1: human GIP receptor (human, UniProt P48546 22-466)
T1 construct: whole, on cells; also called hGIPR; hGIP-R
T1 sequence (looked up): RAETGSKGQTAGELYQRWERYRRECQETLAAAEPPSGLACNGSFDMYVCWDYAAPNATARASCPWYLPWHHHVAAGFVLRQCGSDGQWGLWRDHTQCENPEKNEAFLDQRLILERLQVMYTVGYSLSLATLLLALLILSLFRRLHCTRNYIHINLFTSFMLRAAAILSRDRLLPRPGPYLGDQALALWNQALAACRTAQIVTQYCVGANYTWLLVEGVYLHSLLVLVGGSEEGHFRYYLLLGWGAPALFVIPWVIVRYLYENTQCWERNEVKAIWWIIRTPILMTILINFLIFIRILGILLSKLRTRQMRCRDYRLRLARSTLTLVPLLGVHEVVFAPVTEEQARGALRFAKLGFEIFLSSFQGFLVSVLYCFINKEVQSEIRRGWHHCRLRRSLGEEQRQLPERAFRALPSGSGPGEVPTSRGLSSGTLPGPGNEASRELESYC

B1: Example 298 (peptide)
peptide: Y[Aib]EGTFTSDYSILLDKK([AEEA-AEEA-γGlu-C18 diacid])AQ[Aib]AFVEYLIEGGPSSG-NH2
modifications: N-terminus assumed
SMILES: CC[C@H](C)[C@H](NC(=O)[C@H](CC(C)C)NC(=O)[C@H](Cc1ccc(O)cc1)NC(=O)[C@H](CCC(=O)O)NC(=O)[C@@H](NC(=O)[C@H](Cc1ccccc1)NC(=O)[C@H](C)NC(=O)C(C)(C)NC(=O)[C@H](CCC(N)=O)NC(=O)[C@H](C)NC(=O)[C@H](CCCCNC(=O)COCCOCCNC(=O)COCCOCCNC(=O)CC[C@H](NC(=O)CCCCCCCCCCCCCCCCC(=O)O)C(=O)O)NC(=O)[C@H](CCCCN)NC(=O)[C@H](CC(=O)O)NC(=O)[C@H](CC(C)C)NC(=O)[C@H](CC(C)C)NC(=O)[C@@H](NC(=O)[C@H](CO)NC(=O)[C@H](Cc1ccc(O)cc1)NC(=O)[C@H](CC(=O)O)NC(=O)[C@H](CO)NC(=O)[C@@H](NC(=O)[C@H](Cc1ccccc1)NC(=O)[C@@H](NC(=O)CNC(=O)[C@H](CCC(=O)O)NC(=O)C(C)(C)NC(=O)[C@@H](N)Cc1ccc(O)cc1)[C@@H](C)O)[C@@H](C)O)[C@@H](C)CC)C(C)C)C(=O)N[C@@H](CCC(=O)O)C(=O)NCC(=O)NCC(=O)N1CCC[C@H]1C(=O)N[C@@H](CO)C(=O)N[C@@H](CO)C(=O)NCC(N)=O
B2: Example 299 (peptide)
peptide: Y[Aib]EGTFTSDYSILLDKK([AEEA-AEEA-γGlu-C18 diacid])AQ[Aib]AFLEYLIEGGPSSG-NH2
modifications: N-terminus assumed
SMILES: CC[C@H](C)[C@H](NC(=O)[C@H](CC(C)C)NC(=O)[C@H](Cc1ccc(O)cc1)NC(=O)[C@H](CCC(=O)O)NC(=O)[C@H](CC(C)C)NC(=O)[C@H](Cc1ccccc1)NC(=O)[C@H](C)NC(=O)C(C)(C)NC(=O)[C@H](CCC(N)=O)NC(=O)[C@H](C)NC(=O)[C@H](CCCCNC(=O)COCCOCCNC(=O)COCCOCCNC(=O)CC[C@H](NC(=O)CCCCCCCCCCCCCCCCC(=O)O)C(=O)O)NC(=O)[C@H](CCCCN)NC(=O)[C@H](CC(=O)O)NC(=O)[C@H](CC(C)C)NC(=O)[C@H](CC(C)C)NC(=O)[C@@H](NC(=O)[C@H](CO)NC(=O)[C@H](Cc1ccc(O)cc1)NC(=O)[C@H](CC(=O)O)NC(=O)[C@H](CO)NC(=O)[C@@H](NC(=O)[C@H](Cc1ccccc1)NC(=O)[C@@H](NC(=O)CNC(=O)[C@H](CCC(=O)O)NC(=O)C(C)(C)NC(=O)[C@@H](N)Cc1ccc(O)cc1)[C@@H](C)O)[C@@H](C)O)[C@@H](C)CC)C(=O)N[C@@H](CCC(=O)O)C(=O)NCC(=O)NCC(=O)N1CCC[C@H]1C(=O)N[C@@H](CO)C(=O)N[C@@H](CO)C(=O)NCC(N)=O
B3: Example 320 (peptide)
peptide: Y[Aib]EGTFTSDYSILLDKK([AEEA-AEEA-γGlu-C18 diacid])AQ[Aib]DFIEYLIEGGPSSG-NH2
modifications: N-terminus assumed
SMILES: CC[C@H](C)[C@H](NC(=O)[C@H](CC(C)C)NC(=O)[C@H](Cc1ccc(O)cc1)NC(=O)[C@H](CCC(=O)O)NC(=O)[C@@H](NC(=O)[C@H](Cc1ccccc1)NC(=O)[C@H](CC(=O)O)NC(=O)C(C)(C)NC(=O)[C@H](CCC(N)=O)NC(=O)[C@H](C)NC(=O)[C@H](CCCCNC(=O)COCCOCCNC(=O)COCCOCCNC(=O)CC[C@H](NC(=O)CCCCCCCCCCCCCCCCC(=O)O)C(=O)O)NC(=O)[C@H](CCCCN)NC(=O)[C@H](CC(=O)O)NC(=O)[C@H](CC(C)C)NC(=O)[C@H](CC(C)C)NC(=O)[C@@H](NC(=O)[C@H](CO)NC(=O)[C@H](Cc1ccc(O)cc1)NC(=O)[C@H](CC(=O)O)NC(=O)[C@H](CO)NC(=O)[C@@H](NC(=O)[C@H](Cc1ccccc1)NC(=O)[C@@H](NC(=O)CNC(=O)[C@H](CCC(=O)O)NC(=O)C(C)(C)NC(=O)[C@@H](N)Cc1ccc(O)cc1)[C@@H](C)O)[C@@H](C)O)[C@@H](C)CC)[C@@H](C)CC)C(=O)N[C@@H](CCC(=O)O)C(=O)NCC(=O)NCC(=O)N1CCC[C@H]1C(=O)N[C@@H](CO)C(=O)N[C@@H](CO)C(=O)NCC(N)=O
B4: Example 269 (peptide)
peptide: Y[Aib]EGTFTSDYSILLDEK([AEEA-AEEA-γGlu-C18 diacid])AQ[Aib]AFIEYLIEGG-NH2
modifications: N-terminus assumed
SMILES: CC[C@H](C)[C@H](NC(=O)[C@H](CC(C)C)NC(=O)[C@H](Cc1ccc(O)cc1)NC(=O)[C@H](CCC(=O)O)NC(=O)[C@@H](NC(=O)[C@H](Cc1ccccc1)NC(=O)[C@H](C)NC(=O)C(C)(C)NC(=O)[C@H](CCC(N)=O)NC(=O)[C@H](C)NC(=O)[C@H](CCCCNC(=O)COCCOCCNC(=O)COCCOCCNC(=O)CC[C@H](NC(=O)CCCCCCCCCCCCCCCCC(=O)O)C(=O)O)NC(=O)[C@H](CCC(=O)O)NC(=O)[C@H](CC(=O)O)NC(=O)[C@H](CC(C)C)NC(=O)[C@H](CC(C)C)NC(=O)[C@@H](NC(=O)[C@H](CO)NC(=O)[C@H](Cc1ccc(O)cc1)NC(=O)[C@H](CC(=O)O)NC(=O)[C@H](CO)NC(=O)[C@@H](NC(=O)[C@H](Cc1ccccc1)NC(=O)[C@@H](NC(=O)CNC(=O)[C@H](CCC(=O)O)NC(=O)C(C)(C)NC(=O)[C@@H](N)Cc1ccc(O)cc1)[C@@H](C)O)[C@@H](C)O)[C@@H](C)CC)[C@@H](C)CC)C(=O)N[C@@H](CCC(=O)O)C(=O)NCC(=O)NCC(N)=O
B5: Example 271 (peptide)
peptide: Y[Aib]EGTFTSDYSILLDKK([AEEA-AEEA-γGlu-C18 diacid])AQ[Aib]EFIEYLIEGG-NH2
modifications: N-terminus assumed
SMILES: CC[C@H](C)[C@H](NC(=O)[C@H](CC(C)C)NC(=O)[C@H](Cc1ccc(O)cc1)NC(=O)[C@H](CCC(=O)O)NC(=O)[C@@H](NC(=O)[C@H](Cc1ccccc1)NC(=O)[C@H](CCC(=O)O)NC(=O)C(C)(C)NC(=O)[C@H](CCC(N)=O)NC(=O)[C@H](C)NC(=O)[C@H](CCCCNC(=O)COCCOCCNC(=O)COCCOCCNC(=O)CC[C@H](NC(=O)CCCCCCCCCCCCCCCCC(=O)O)C(=O)O)NC(=O)[C@H](CCCCN)NC(=O)[C@H](CC(=O)O)NC(=O)[C@H](CC(C)C)NC(=O)[C@H](CC(C)C)NC(=O)[C@@H](NC(=O)[C@H](CO)NC(=O)[C@H](Cc1ccc(O)cc1)NC(=O)[C@H](CC(=O)O)NC(=O)[C@H](CO)NC(=O)[C@@H](NC(=O)[C@H](Cc1ccccc1)NC(=O)[C@@H](NC(=O)CNC(=O)[C@H](CCC(=O)O)NC(=O)C(C)(C)NC(=O)[C@@H](N)Cc1ccc(O)cc1)[C@@H](C)O)[C@@H](C)O)[C@@H](C)CC)[C@@H](C)CC)C(=O)N[C@@H](CCC(=O)O)C(=O)NCC(=O)NCC(N)=O

target: T2, human GLP-1 receptor (human, UniProt P43220 24-463); experiment: [125I]-GLP-1 competition SPA, hGLP-1R membranes
T2 construct: whole, on cells; also called hGLP-1R; hGLP1R
Procedure: The binding buffer contains 25 mM HEPES, pH 7.4, 2.5 mM CaCl₂, 1 mM MgCl₂, 0.1% (w/v) bacitracin, 0.003% (w/v) TWEEN®-20, and Roche Complete™ Protease Inhibitors without EDTA.
(§1) Data are analyzed using four-parameter (curve maximum, curve minimum, IC₅₀, Hill slope) nonlinear regression routines (Genedata Screener, version 12.0.4, Genedata AG, Basal, Switzerland). […] Values for Kᵢ are reported as the geometric mean, with error expressed as the standard error of the mean (SEM) and n is equal to the number of independent replicates (determined in assays performed on different days). Geometric Means are calculated as follows: […]

Row | Ki | Binder
1 | 3.03 nM | B1
2 | 54.3 nM | B2
3 | 5.17 nM | B3
4 | 7.1 nM | B4
5 | 5.09 nM | B5

target: T1, human GIP receptor; experiment: [125I]-GIP competition SPA, hGIPR membranes
Procedure: The binding buffer contains 25 mM HEPES, pH 7.4, 2.5 mM CaCl₂, 1 mM MgCl₂, 0.1% (w/v) bacitracin, 0.003% (w/v) TWEEN®-20, and Roche Complete™ Protease Inhibitors without EDTA. […] Plates are sealed and mixed on a plate shaker (setting 6) for 1 minute and read with a PerkinElmer Trilux MicroBeta® scintillation counter after 2.5 to 12 hours of incubation/settling time at room temperature.
as §1

Row | Ki | Binder
6 | 0.0578 nM | B1
7 | 0.734 nM | B2
8 | 0.136 nM | B3
9 | 0.152 nM | B4
10 | 0.107 nM | B5
